This assay deals with Mouse monoclonal antibody 1F9 (isotype IgG2b with a Kappa light chain). The assay is described as follows: phage ELISA. As to conditions: immobilized 1F9; phage dilution 5 (first point of the series); duplicate; parent: est. 0.88; read off a plot. (In an ELISA, binding on a coated surface is turned into a signal by an enzyme label.)

The results in this text go back to paper PMC2323298.

In the case of “3D7 AMA1 domain I expressed on M13 phage D204N”, the response (absorbance 450 nm) is 0.06.

On to “3D7 AMA1 domain I expressed on M13 phage F201L”, for which the response (absorbance 450 nm) turned out to be 0.53.

Take “3D7 AMA1 domain I expressed on M13 phage F201V”: the response (absorbance 450 nm) was found to be 0.06.

For the substance “3D7 AMA1 domain I expressed on M13 phage H200L”, the response (absorbance 450 nm) came out at 0.17.

In the case of “3D7 AMA1 domain I expressed on M13 phage N228K”, the response (absorbance 450 nm) was 0.38.
